Measurements taken from patent publication US7115556B2, “Use of anti-prolactin agents to treat proliferative conditions” (Greenville Hospital System, priority 1998, dated 2006).

Legend:
[1] = biological target: T1, Caspase-3 (Homo sapiens, UniProt P42574); assay: ApopAlert CPP32/Caspase-3 assay in T-47D cells; assay type: cell-based; conditions: 250 ng/ml, 2 h, with DEVD-CHO control
T1 construct: endogenous in cells; host or cells: T-47D
T1 sequence (P42574 29-277): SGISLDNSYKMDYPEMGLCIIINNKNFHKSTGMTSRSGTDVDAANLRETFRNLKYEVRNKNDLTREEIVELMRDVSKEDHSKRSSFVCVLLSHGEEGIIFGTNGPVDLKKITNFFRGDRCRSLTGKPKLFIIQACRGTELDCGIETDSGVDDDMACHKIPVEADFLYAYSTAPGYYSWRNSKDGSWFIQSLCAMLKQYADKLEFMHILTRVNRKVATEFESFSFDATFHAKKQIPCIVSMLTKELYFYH
Procedure: FIG. 24. Induction of Caspase-3 by bPRL-G129R. The effect of hPRL-G129R on Caspase-3 activation in T-47D cells using an ApopAlert CPP32/Caspase-3 assay kit (Clontech, Palo Alto, Calif.) is shown. T-47D cells were treated with 250 ng/ml of hPRL-G129R for 2 h. […] The samples were in duplicate and each sample constituted about 2 million cells.
In addition, the effect of hPRL-G129R on Caspase-3 activation was assayed in T-47D cells using an ApopAlert CPP32/Caspase-3 assay kit (Clontech, Palo Alto, Calif.) as presented in FIG. 24. T-47D cells were treated with 250 ng/ml of hPRL-G129R for 2 h.

[2] = tested on: T47-D human breast cancer cells; assay: Light microscopic examination of T47-D cells; assay type: cell-based; conditions: single dose 200 ng/ml, 4-day incubation
Procedure: FIGS. 14A–E. Light microscopic examination of T47-D human breast cancer cells after single dose of 200 ng/ml hPRL (15B); 200 ng/ml of HPRL-G129R (15C); 200 nM of E2 (15D); or 200 nM of 4-OH-Tamoxifen (15E) treatment after 4-day incubation as compared to control (15A).×200.
Human Breast Cancer Cell Proliferation Assays. Human PRL and hPRL-G129R were tested further for their ability to stimulate/inhibit breast cancer cell proliferation in cell culture. Light microscopic examination of breast cancer cell proliferation after hPRL, hPRL-G129R, E2 and 4-OH-Tamoxifen is shown in FIGS. 14A–E. It is clear that there is a significant difference in cell density between hPRL (15B), hPRL-G129R(15C) and E2 (15D), 4-OH-Tamoxifen (15E) treated cells.

[3] = tested on: MCF-7 human breast cancer cells; assay: Mixed cell culture assay with transfected L cells, MCF-7; assay type: cell-based; conditions: MCF-7, three days
[4] = tested on: MDA-MB-134 cells; assay: TUNEL assay, MDA-MB-134; assay type: cell-based, human; conditions: 250 ng G129R, 24 hours
Procedure: (§1) Cell Culture. T-47D cells obtained from ATCC were grown in RPMI 1640 (phenol red free), supplemented with 10% FBS (GIBCO BRL). BT-474 cells were grown in RPMI 1640 medium (phenol red free) supplemented with 10% FBS and ATCC recommended supplements. MCF-7 cells were grown in DMEM medium (phenol red free), supplemented with 10% FBS. The cells were grown at 37° C. in a humid atmosphere in the presence of 5% CO2. The MDA-MB-134 cells were grown in Leibovitz's L-15 medium supplemented with 20% FBS and grown in CO2 free atmosphere. The breast cancer cells were trypsinized (0.02% Trypsin—EDTA) and grown in their respective media (phenol red free) supplemented with 10% CSS (Charcoal stripped serum) for a week. Subsequently the cells were trypsinized again and plated onto an 8 chambered slide system (Lab Tek II) at a confluence of 60–70% per chamber. The next day treatments were performed on the breast cancer cells using their respective media(phenol red free), supplemented with 1% CSS. The MDA-MB-134 VI cells were grown in phenol red containing medium, but with the same serum conditions as the other breast cancer cells.
Terminal deoxynucleotidly transferase mediated dUTP nick end labeling (TUNEL) assay. Nicks of the fragmented DNA are labeled at their 3-OH ends. The fluorescein-labeled dUTP is incorporated at the 3-OH ends by using the enzyme terminal deoxynucleotidyl transferase. […]

[5] = tested on: BT-474 cells; assay: TUNEL assay, BT-474; assay type: cell-based, human
Procedure: as §1
Terminal deoxynucleotidly transferase mediated dUTP nick end labeling (TUNEL) assay. Nicks of the fragmented DNA are labeled at their 3-OH ends. The fluorescein-labeled dUTP is incorporated at the 3-OH ends by using the enzyme terminal deoxynucleotidyl transferase. After the assigned period of treatment the chambers were dismantled as per the manufacturer's instructions and the TUNEL assay (Apoptosis detection system, Fluorescein- Promega) was performed as per the manufacturer's instructions. The slide was examined under a FITC filter using an Olympus IX 70 microscope system.

[6] = tested on: T47D human breast cancer cells; assay: Mixed cell culture assay with transfected L cells, T47D; assay type: cell-based
From the text: For certain experiments, a mixed cell culture assay was used, diagramatically represented in FIG. 6. In this assay, breast cancer cells were co-cultured with expressor cells which had been transfected with nucleic acid encoding PRL or a PRL variant and expressing those recombinant proteins. By varying the number of expressor cells, the amount of PRL or PRL variant present in the mixed cell culture was increased or decreased. […] In certain wells, which served as a control, no expresser cells were added. Then, increasing numbers of expresser cells (transfected L cells expressing either HPRL (L-PRL) or hPRLA (L-PRLA)) were added to breast cancer cell-containing wells to create mixed cultures. The same numbers of expressor cells were cultured in parallel (without T47D cells) to serve as controls. After culturing under standard conditions for a period of time, the number of cells present in the wells was counted, and the number of L cells in the corresponding control culture was subtracted. The resulting number could then be compared to the number of T47D cells in the T47D control culture to evaluate the effects of the recombinant product on breast cancer cell proliferation.

[7] = tested on: T47-D cells; assay: Co-culture with L-G129R cells, T47-D; assay type: cell-based, human; conditions: T47-D co-cultured with L-G129R cells
From the text: The co-culture experimental set-up provides a sustained presence of biologically active hPRL-G129R, thereby resulting in a maximal response in these tumor cells.

B1: hPRL-G129R: variant of human prolactin having a substitution of the glycine at position 129 with an arginine residue; prolactin receptor antagonist (protein)
chain: LPICPGGAARCQVTLRDLFDRAVVLSHYIHNLSSEMFSEFDKRYTHGRGFITKAINSCHTSSLATPEDKEQAQQMNQKDFLSLIVSILRSWNEPLYHLVTEVRGMQEAPEAILSKAVEIEEQTKRLLERMELIVSQVHPETKENEIYPVWSGLPSLQMADEESRLSAYYNLLHCLRRDSHKIDNYLKLLKCRIIHNNNC
Caspase-3 activation [1]: Caspase-3 induction | overall cell condition under light microscopy [2]: not as healthy | effect on proliferation in mixed cell culture [3]: inhibitory effect | induction of apoptosis DNA fragmentation [4]: induced apoptosis | induction of apoptosis DNA fragmentation ([5]; 250 ng G129R, 24 hours): induced apoptosis | apoptosis and hPRL competition, as in T-47D ([5]; BT-474 cells): same results | effect on proliferation in mixed cell culture ([6]; T47D, three days, effect greater than on MCF-7): inhibitory effect | inhibition of T47D proliferation ([6]; co-culture with L cells expressing hPRLA, 24 h to five days): up to 100% | inhibition of cell proliferation in co-culture [7]: Complete inhibition
